Columns and labels:
[1] = target: T1, EGFR-D1D2 (L25-A310, P00533-1 (uniprot)) his tag antigen (human, UniProt P00533 25-310); test: ELISA: EGFR-D1D2 his tag antigen coated at 0.5 µg/mL, antibody at 2000, 200, 20, 2 nM, HRP goat anti-human IgG Fc, OD450
T1 construct: range 25-310; also called I+II domain protein; EGFR-D1D2 protein; not shown: His tag
Experimental: (2) Protein Binding Epitope Analysis: ELISA was used to determine the binding of VHH-IgG4 antibody to each domain of EGFR extracellular protein. Briefly, EGFR his tag protein, and EGFR-V3-his tag antigen protein were diluted to 1 μg/mL, EGFR-D1D2 (L25-A310, P00533-1 (uniprot)), and EGFR-D4 (F481-S645, P00533-1 (uniprot)) his tag antigen were diluted to 0.5 μg/mL, and each well of an ELISA plate was coated with […] antigen and incubated overnight at 4° C. The next day, the plates were washed twice with PBST (added with 0.5% TWEEN-20), then blocked with 3% BSA at 37° C. for 1.5 h, and then washed twice with PBST. Then, the antibody to be tested was diluted to 50 nM, 5 nM, 0.5 nM, 0.05 nM, and added to the wells coated with EGFR his tag protein or EGFR-V3-his tag antigen at 100 µL/well, respectively. The antibody was diluted to 2000 nM, 200 nM, 20 nM, 2 nM, and added to the wells coated with EGFR his tag protein or EGFR-V3-his tag antigen at 100 µL/well, respectively. The ELISA plates were incubated at 37° C. for 1 h. The plates were then washed three times with PBST, and then 100 μL HRP labeled Goat anti human IgG Fc antibody (1:10000, Bethyl) was added into each well, and incubated at 37° C. for another 40 min. After washing the plates four times with PBST, 100 μL of TMB substrate was added to each well, and the reaction was allowed to proceed for 3-5 min. The reaction was stopped by adding 100 μL of 3N hydrochloric acid per well. After stopping the reaction, the optical density at 450/650 nm was measured using a Tecan microplate reader.

[2] = target: T2, Mouse EGFR Protein, His Tag (Acro, Cat #EGR-M5224) (mouse, UniProt Q01279 25-647); test: ELISA, coated antigen 1 ug/mL, antibody 50 nM
T2 construct: extracellular domain; Bought protein; not shown: His tag
Experimental: (§1) ELISA was used to identify the binding of VHH-IgG4 antibodies to the extracellular domains of mouse EGFR, monkey EGFR, and human EGFR proteins. The detection steps were as follows: Mouse EGFR Protein, His Tag (Acro, Cat #EGR-M5224) and Rhesus macaque EGFR Protein, His Tag (Acro, Cat #EGR-C52H1) were diluted to 1 μg/mL with phosphate buffer, and 100 μL of each dilution was added to a 96-well ELISA plate and coated overnight at 4° C. The next day, the plates were washed twice with PBST (containing 0.5% TWEEN-20) and then blocked with 3% BSA at 37° C. for 1.5 h, followed by two washes with PBST. VHH-IgG4 antibodies were diluted to 50 nM, and 100 μL of the dilution was added to each well and incubated at 37° C. for 1 h. The plates were then washed three times with PBST, and 100 μL of HRP-labeled goat anti-human IgG Fc antibody (1:10000, Bethyl) was added to each well and incubated at 37° C. for another 40 min. After washing the plates four times with PBST, 100 μL of TMB substrate was added to each well, and the reaction was allowed to proceed for 3-5 min. The reaction was stopped by adding 100 μL of 3N hydrochloric acid per well. After stopping the reaction, the optical density at 450/650 nm was measured using a Tecan microplate reader.

[3] = target: T3, Rhesus macaque EGFR Protein, His Tag (Acro, Cat #EGR-C52H1) (rhesus macaque, UniProt P55245 25-645); test: ELISA, coated antigen 1 ug/mL, antibody 50 nM
T3 construct: extracellular domain; Bought protein; also called Monkey EGFR; not shown: His tag
Experimental: as §1

[4] = target: T4, human EGFR.His antigen (Acro, Cat #EGR-H522a) (human, UniProt P00533 25-645); test: SPR, antibody captured on protein A, EGFR.His in flow
T4 construct: extracellular domain; Bought protein; also called EGFR his tag protein; full-length EGFR extracellular domain protein; not shown: His tag
Experimental: The binding kinetics and affinity of candidate antibody to human EGFR.His antigen were determined using surface plasmon resonance (SPR). The purified antibody was flowed through the sensor chips pre-immobilized with protein A, and the antibody was captured by protein A. Then five different concentrations of EGFR.His protein were used as the mobile phase, and the binding time and dissociation time were […], respectively. The binding rate (kon), dissociation rate (koff), and equilibrium constant (kD) were analyzed using Biacore Evaluation Software 2.0 (GE). EC225, an antibody that binds to region III of human EGFR, was selected as a positive control (sequence source https.//go.drugbank.com/drugs/DB00002).

[5] = target: T5, Region III of EGFR expressed on HEK293T cells (human, UniProt P00533); test: flow cytometry on HEK293T cells expressing EGFR region III, anti-human IgG PE, MFI, curve fit; unit from the concentration axis and paragraph 62 [table]
T5 construct: also called HEK293T EGFR-III cells; stably transformed cell line 293T overexpressing EGFR III region protein
Experimental: HEK293T cells that express Region III of EGFR (i.e., HEK293T […] cells) were plated in a 96-well plate with 3×10⁵ cells/well, and then HEK293T […] cells were incubated with gradient diluted VHH-IgG4 antibody. After incubation for half an hour, anti-human IgG PE (Jackson Immuno Research, Code: 109-117-008, Lot:145501) as the secondary antibody for detection was added for incubation, and then CytoFLEX flow cytometer was used for detection. The EC50 of the antibody was calculated by curve fitting with Graphprism8.0 software. Isotype 1 in the figure is a negative control, and its amino acid sequence is shown as SEQ ID NO: 2 in CN106046152A.

[6] = target: T6, EGFR on SKOV3 and Aspc-1 tumor cells (human, UniProt P00533); test: flow cytometry on SKOV3 tumor cells, anti-human IgG PE, MFI, curve fit; unit from the concentration axis and paragraph 62 [table]
T6 construct: endogenous, on the cell surface; the cell line is named under assay; also called tumor cell EGFR
Experimental: Two kinds of tumor cells, SKOV3 and Aspc-1, expressing EGFR were respectively plated in 96 well plates, with 3×10⁵ cells per well, and then the tumor cells were incubated with gradient diluted VHH-IgG4 antibody. After incubation on ice for half an hour, anti human IgG PE (Jackson Immuno Research, Code: 109-117-008, Lot:145501) was added for incubation, and then CytoFLEX flow cytometry was used for detection. The EC50 of the antibody was calculated by curve fitting.

Binder	binding result [1]	OD450 [2] [OD450]	OD450 [3] [OD450]	Kd [4] [nM]	koff [4] [s⁻¹]	kon [4] [M⁻¹ s⁻¹]	EC50 [5] [nM]	EC50 [6] [nM]
E004 VHH-IgG4 antibody (antibody, V domains shown, not shown: a dimerising Fc or GST) VH: EVQLVESGGGLAQSGGSLRLACEASGFPFETYAMSWARQTPGNEPEWVAGIFPDGKHTAYAHSVKGRFTISRVNANNTVYLQMDSLKPEDTAVYYCAKDLPFFATPSFYIGYWGQGTLVTVSS	no binding (tested: 2000 nM)	3.37	3.64	5.17	0.000776	150000	0.39	
E005 VHH-IgG4 antibody (antibody, V domains shown, VHH fused to IgG4 (VHH-IgG4), expressed in ExpiCHO, protein A purified; not shown: human IgG4 constant part from the pCDNA3.4-IgG4 vector) VH: QVQLVESGGGLVQPGGSLRLSCEASGFAFSDYTMRWHRQAAGKELELVAYITSAGDIIKYANSVRGRFTISRDNAKNTLYLQMDSLKPEDTAVYRCNALVSASVRASDYWGQGTLVTVSS	no binding (tested: 2000 nM)	3.33	3.19	2.86	4.67e-05	16400	0.98	9.7
E008 VHH-IgG4 antibody (antibody, V domains shown, VHH fused to IgG4 (VHH-IgG4), expressed in ExpiCHO, protein A purified; not shown: human IgG4 constant part from the pCDNA3.4-IgG4 vector) VH: EVQVVESGGGLVQSGGSLTLSCTSSGLPLLDYAIGWFRQAPGKEREAVSAISISEGSTYYTDSVRGRFTISRDNNKNKVYLRMDNLKPEDTAVYYCAADKTDIGFWLLVGGAGGGEVRYEYWGQGTQVTVSS	no binding (tested: 2000 nM)	0.72	3.68	9.62	0.0148	1.53e+06	0.18	1.1

Other lines, results leading:

binding result [1]	OD450 [2] [OD450]	OD450 [3] [OD450]	Kd [4] [nM]	koff [4] [s⁻¹]	kon [4] [M⁻¹ s⁻¹]	EC50 [5] [nM]	EC50 [6] [nM]	Binder
no binding (tested: 2000 nM)	2.8	3.15	4.68	0.000133	28400	0.36	6.5	E003 VHH-IgG4 antibody (antibody, V domains shown, not shown: a dimerising Fc or GST) VH: QVQLVESGGGLVQPGGSLRLSCVASGGVFSSYAMGWYRQVPGKLRELVATITSGHSTTYADIVRGRFTISRDNTKNTVYLQMNRLEPDDTAVYYCNRSPYTPGNWGQGTLVTVSS
no binding (tested: 2000 nM)	3.21	3.35	0.292	1.08e-05	37100	0.47	14	E007 VHH-IgG4 antibody (antibody, V domains shown, not shown: a dimerising Fc or GST) VH: EVQLVESGGGLVQPGGSLRLSCEASGFSFSDHTMRWHRQAAGKNLELVAYITPAGDIIKYADSVQGRFTISRDNAKNMLYLQMDSLRPDDTAVYRCNALVSAAVRASDYWGQGTQVTVSS
no binding (tested: 2000 nM)	2.73	3.06	2.49	0.000121	48500	0.095	2.3	E002 VHH-IgG4 antibody (antibody, V domains shown, VHH fused to IgG4 (VHH-IgG4), expressed in ExpiCHO, protein A purified; not shown: human IgG4 constant part from the pCDNA3.4-IgG4 vector) VH: QVQLVESGGGLVQAGGSLRLSCAASGFTFSDYAVSWYRQAPGKEREFVARITGTGETSRYEDSVKGRFAISRDNVKNTAYLQMNSLKPEDTAVYYCSIYHPPRDYWGQGTQVTVSS
